Where a chain is given by its changes, count along the chain named. Where only a bound is given, the exact number is not on record here.

The target in experiment [1] is SAF-2 (Siglec-8 / Siglec-8L) on the cell surface (human) (UniProt Q9NYZ4). Nature of the experiment: cell-based or functional assay.
Experiment [2] addresses T1, SAF-2 polypeptide (extracellular domain of sialoadhesin factor-2, released from SAF-2/Fc by Factor Xa … (human, UniProt Q9NYZ4 17-363)).
T1 construct: extracellular domain; The BIAcore analyte is printed only as 'SAF-2 (diluted in HBS buffer)'; Residues left over from the cleavage site are not described; also called Siglec-8
Nature of the experiment: BIAcore SPR. The mAb was captured on a rabbit anti-mouse IgG Fc surface and SAF-2 was injected as analyte. Here is the method:
(§1) Kinetic data was evaluated using relationships described previously (Karlsson, et al. (1991) J. Immunol. Meth. 145:229). The mAb (diluted in HBS buffer, 10 mM HEPES, 150 mM NaCl, 0.01% Tween-20, pH 7.4) was injected over a rabbit anti-mouse IgG Fe surface, followed by buffer flow, and the RU was recorded. SAF-2 (diluted in HBS buffer) was then injected for 180 seconds, followed by a buffer flow for 300 seconds, and the RU was recorded. The sensor chip surface was regenerated by an injection of 0.1 M phosphoric acid. The on-rates (Kₐ) and off-rates (Kd) of binding were calculated using BIAcore (Uppswala, Sweden) software.

Experiment [3] addresses T1, SAF-2 polypeptide (extracellular domain …). Nature of the experiment: BIAcore SPR. The mAb was captured on a rabbit anti-mouse IgG Fc surface and SAF-2 was injected as analyte. KD was calculated from the rates. Here is the method: as §1

SAF-2 (Siglec-8 / Siglec-8L) on the cell surface (human), sequence (Q9NYZ4 17-499): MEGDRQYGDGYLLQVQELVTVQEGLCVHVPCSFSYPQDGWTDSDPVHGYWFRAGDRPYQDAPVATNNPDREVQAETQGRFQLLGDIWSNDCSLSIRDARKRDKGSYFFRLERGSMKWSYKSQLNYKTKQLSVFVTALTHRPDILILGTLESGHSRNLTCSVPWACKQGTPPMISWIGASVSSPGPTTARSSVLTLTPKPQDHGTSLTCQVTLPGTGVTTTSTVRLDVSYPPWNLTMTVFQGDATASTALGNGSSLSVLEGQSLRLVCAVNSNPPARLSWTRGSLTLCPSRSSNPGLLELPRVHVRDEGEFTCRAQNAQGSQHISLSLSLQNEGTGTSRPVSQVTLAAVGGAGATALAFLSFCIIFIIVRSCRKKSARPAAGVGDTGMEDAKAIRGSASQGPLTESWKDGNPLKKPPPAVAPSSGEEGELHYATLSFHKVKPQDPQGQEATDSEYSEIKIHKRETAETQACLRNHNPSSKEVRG
T1 sequence (Q9NYZ4 17-363): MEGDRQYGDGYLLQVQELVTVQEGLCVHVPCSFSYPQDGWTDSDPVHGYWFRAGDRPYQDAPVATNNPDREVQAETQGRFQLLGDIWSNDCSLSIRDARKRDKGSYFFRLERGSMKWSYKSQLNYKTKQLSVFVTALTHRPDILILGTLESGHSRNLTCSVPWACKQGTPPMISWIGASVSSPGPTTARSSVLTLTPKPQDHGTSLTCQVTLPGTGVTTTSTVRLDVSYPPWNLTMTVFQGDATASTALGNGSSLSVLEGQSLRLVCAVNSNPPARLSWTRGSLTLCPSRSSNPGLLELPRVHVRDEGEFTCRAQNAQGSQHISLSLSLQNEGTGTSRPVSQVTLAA

B1: 2E2 mAb (antibody, from another filing, V domains shown)
VH: VQLKRASGPGLVAPSQSLSITCTVSGFSLTIYGAHWVRQPPGKGLEWLGVIWAGGSTNYNSALMSRLSISKDNSKSQVFLKINSLQTDDTALYYCARDGSSPYYYSMEYWGQGTSVTVSS
VL: QIILTQSPAIMSASPGEKVSITCSATSSVSYMHWFQQKPGTSPKLWIYSTSNLASGVPVRFSGSGSGTSYSLTISRMEAEDAATYYCQQRSSYPFTFGSGTKLEIKA
Consider B1, for which, in experiment [1], the apoptosis (annexin-V) of IL-5-primed eosinophils, 2E2 mAb alone was determined as 69%; the apoptosis (annexin-V) of unprimed eosinophils, 2E2 and secondary Ab was 72%; the eosinophil death at 48-72 h of culture (erythrosin-B dye exclusion), 2E2 plus secondary polyclonal Ab is more than 90%; the eosinophil death at 24 h of culture (erythrosin-B dye exclusion), 2E2 plus secondary polyclonal Ab turned out to be 68%.

B2: monoclonal antibody 2C4 (antibody, IgG1, V domains shown)
VH: QVQLKESGPGLVAPSQSLSITCTVSGFSLIYGAHWVRQPPGKGLEWLGVIWAGGSTNYNSALMSRLSISKDNSKSQVFLKINSLQTDDTALYYCARDGSSPYYYSMEYWGQGTSVTVSS
VL: B1 VL with Q1E, A107R
notes: also called mAb 2C4
Turning to B2, in experiment [2], the koff (commonly a measure of how fast the partners let go of each other) was 4.3e-05 s⁻¹ and the kon – broadly, a measure of how fast the partners come together – amounted to 220000 M⁻¹ s⁻¹. For the same molecule, the dissociation constant Kd (commonly the concentration at which binding is half-saturated) in experiment [3] is 0.2 nM.

(Values after US20030092091A1 (GlaxoSmithKline, published 2003).)
